As a reminder, the Kd is a measure of binding affinity in units of concentration.

The values that follow come from US20240141071A1 (LAVA THERAPEUTICS N V, published 2024).

The target of test [1] is T1, human CD123 expressed on cells (human, UniProt P26951 19-378). Description: cell-based or functional assay.
In test [2] the target is T2, Recombinant, purified CD123 antigen (extra-cellular domain; Sino Biological) (human, UniProt P26951 19-305).
T2 construct: Bought; also called recombinant human CD123
T2 sequence: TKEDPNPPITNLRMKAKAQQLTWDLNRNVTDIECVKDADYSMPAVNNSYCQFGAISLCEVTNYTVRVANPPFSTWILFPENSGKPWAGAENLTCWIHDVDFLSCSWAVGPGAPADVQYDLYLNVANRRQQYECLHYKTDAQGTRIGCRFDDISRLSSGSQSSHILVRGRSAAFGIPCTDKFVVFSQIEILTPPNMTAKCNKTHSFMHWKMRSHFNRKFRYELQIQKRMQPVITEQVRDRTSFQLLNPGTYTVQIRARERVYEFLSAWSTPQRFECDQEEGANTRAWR
As to the kind of experiment: phage ELISA on recombinant captured CD123 antigen.

Test [3] deals with T1, human CD123 expressed on cells. As to the kind of experiment: flow cytometry on CD123 expressing C1R-CD1d cells (cell line used for immunization). Background: Flow cytometry measures light scatter and fluorescence of single cells or particles in a stream.
Test [4] addresses T3, recombinant purified CD123-Fc fusion protein (Bio-Techne/R&D Systems) (human, UniProt P26951 19-305).
T3 construct: Bought; also called Fc-fusion of the CD123 antigen; recombinant CD123
T3 sequence: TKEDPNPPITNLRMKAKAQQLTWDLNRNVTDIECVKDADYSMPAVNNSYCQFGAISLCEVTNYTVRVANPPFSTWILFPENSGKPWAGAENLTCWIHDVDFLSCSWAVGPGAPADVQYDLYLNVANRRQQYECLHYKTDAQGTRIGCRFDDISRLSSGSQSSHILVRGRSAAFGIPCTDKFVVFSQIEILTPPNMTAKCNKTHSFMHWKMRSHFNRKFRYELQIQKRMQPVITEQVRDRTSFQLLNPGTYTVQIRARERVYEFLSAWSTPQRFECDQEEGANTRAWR
As to the kind of experiment: BLI, CD123-Fc on anti-human IgG Fc capture sensors; *low binding (>20 nM), one measurement only. The procedure: (§1) To determine the kinetics of binding of humanized 1D2-5C8var1 variants to CD123, recombinant purified CD123-Fc fusion protein (Bio-Techne/R&D Systems) was loaded to a density of 1 nm onto anti-human IgG Fc Capture sensors (using a concentration of 5 μg/ml) for an Octet Red96e (Sartorius) instrument. Different sensors were then dipped in different concentrations of humanized 1D2-5C8var1 variants, starting at 50 nM and two-fold dilutions thereof; dilutions were made in 10× kinetic buffer (10×KB) provided by the supplier. From the obtained sensorgrams, the kinetic association- and dissociation rate constants were determined by curve fitting. The association- and dissociation rate constants, when fitting was possible, were used to calculate the affinity of the humanized 1D2-5C8var1 variants for binding to CD123. […] For reference, the non-humanized (parental) 1D2 was included in these experiments.

The target in test [5] is T3, recombinant purified CD123-Fc fusion …. Description: BLI, CD123-Fc on anti-human IgG Fc capture sensors; SD 7.5. As for the experimental part: as §1
The target in a further test is T4, BSA (bovine, UniProt P02769).
T4 construct: also called bovine serum albumin, negative control coating
T4 sequence (P02769 25-607 limits assumed): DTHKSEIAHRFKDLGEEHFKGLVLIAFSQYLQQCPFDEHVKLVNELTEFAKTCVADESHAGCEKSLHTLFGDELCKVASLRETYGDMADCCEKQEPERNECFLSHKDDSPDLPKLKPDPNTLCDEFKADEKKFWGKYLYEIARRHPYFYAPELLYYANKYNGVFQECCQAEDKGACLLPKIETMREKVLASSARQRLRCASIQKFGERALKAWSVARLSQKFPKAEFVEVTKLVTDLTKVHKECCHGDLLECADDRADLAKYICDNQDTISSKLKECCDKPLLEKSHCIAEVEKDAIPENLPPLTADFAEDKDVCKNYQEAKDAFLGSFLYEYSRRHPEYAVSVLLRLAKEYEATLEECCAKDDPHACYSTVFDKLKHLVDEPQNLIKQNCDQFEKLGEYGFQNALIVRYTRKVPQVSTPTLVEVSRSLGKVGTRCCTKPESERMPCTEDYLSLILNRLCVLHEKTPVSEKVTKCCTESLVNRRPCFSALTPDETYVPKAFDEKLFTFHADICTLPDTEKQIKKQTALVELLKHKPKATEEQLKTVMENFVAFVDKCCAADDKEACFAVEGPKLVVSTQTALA
As to the kind of experiment: ELISA, wells coated with 1% BSA (panel BSA), HRP anti-VHH detection. From the text: FIG. 1: ELISA showing binding of all different bispecific VHHs to CD123, the Vγ9Vδ2 (GDT) TCR and BSA (as negative control). OD values are depicted; values are the mean of duplicate measurements; error bars indicate standard errors of the mean. A mono-valent anti-Vδ2 VHH was used as control for the TCR staining (“TCR control”) and a commercially available anti-CD123 antibody (“anti-CD123”) was used as control for the CD123 antigen coatings. “No AB” indicates a negative control without primary antibody.
Recombinant, purified CD123 antigen (extra-cellular domain; Sino Biological), or an Fc-fusion of the CD123 antigen (Bio-Techne/R&D Systems) was coated to the wells of an ELISA plate (Greiner) in PBS at a concentration of 2 μg/ml. As a negative control, wells were coated with 1% (w/v) BSA. An in-house designed, produced and purified recombinant form of the extra-cellular domains of the human Vγ9 and Vδ2 TCR chains fused to a human Fc was also coated as antigen at 2 μg/ml. After coating and blocking of the wells with 2% (w/v) BSA, bispecific VHH proteins were tested for binding at a saturating concentration of 50 nM and bound VHH was detected using an HRP-labeled anti-VHH antibody (Genscript) and staining using 3,3′,5,5′-tetramethylbenzidine (TMB)/H2O2.
A general note: In an ELISA, binding on a coated surface is turned into a signal by an enzyme label.

Test [6] concerns the target T5, human CD131 (common β chain of the IL3 receptor) expressed on 293F cells (human, UniProt P32927 17-897).
T5 sequence: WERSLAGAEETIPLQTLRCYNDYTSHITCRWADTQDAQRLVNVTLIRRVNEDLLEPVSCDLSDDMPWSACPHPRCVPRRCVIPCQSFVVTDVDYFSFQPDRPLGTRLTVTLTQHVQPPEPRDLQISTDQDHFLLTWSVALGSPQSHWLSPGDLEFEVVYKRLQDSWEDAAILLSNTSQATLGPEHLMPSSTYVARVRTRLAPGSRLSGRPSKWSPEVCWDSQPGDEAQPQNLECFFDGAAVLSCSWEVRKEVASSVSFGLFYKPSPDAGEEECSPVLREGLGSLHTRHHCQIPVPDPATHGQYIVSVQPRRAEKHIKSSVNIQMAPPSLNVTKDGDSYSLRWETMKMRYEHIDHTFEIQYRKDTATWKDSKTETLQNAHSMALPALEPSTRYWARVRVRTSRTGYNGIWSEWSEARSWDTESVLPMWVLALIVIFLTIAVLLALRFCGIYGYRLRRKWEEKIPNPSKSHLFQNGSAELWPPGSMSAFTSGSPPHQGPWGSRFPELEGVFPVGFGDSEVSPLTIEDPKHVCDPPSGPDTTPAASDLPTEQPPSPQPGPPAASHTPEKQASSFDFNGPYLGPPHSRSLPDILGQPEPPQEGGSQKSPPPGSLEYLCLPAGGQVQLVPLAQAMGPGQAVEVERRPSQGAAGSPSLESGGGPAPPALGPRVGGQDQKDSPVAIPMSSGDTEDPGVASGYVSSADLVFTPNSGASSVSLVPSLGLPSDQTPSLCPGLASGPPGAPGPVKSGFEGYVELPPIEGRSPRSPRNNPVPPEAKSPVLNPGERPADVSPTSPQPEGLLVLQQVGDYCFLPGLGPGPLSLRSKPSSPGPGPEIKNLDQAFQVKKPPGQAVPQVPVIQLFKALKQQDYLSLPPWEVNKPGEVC
As to the kind of experiment: flow cytometry on 293F cells transiently expressing CD131, AF647-labeled anti-VHH detection. The procedure: Expression constructs for human CD123 and for the common β chain of the receptor (CD131) were purchased from Invivogen. Plasmids were transformed to chemically competent DH5α bacteria and a single colony growing on selective medium was used to inoculate a 50 ml culture to amplify both constructs. […] Either plasmid alone, or a mix of the two plasmids was used for transfection. As negative control, untransfected cells were also used for flow cytometry. A day after transfection, cells were used to test the binding of the bispecific VHH using staining in FACS. Briefly, binding of a saturating concentration of 100 nM bispecific VHH to transfected cells was detected with an AF647-labeled anti-VHH (Genscript) antibody and staining was visualized using a FACS Celesta (Becton and Dickinson).

B1: 1D2-5C8var1(Y105F)-Fc (bispecific antibody, human IgG1, V domains shown)
V domain 1: EVQLVESGGGLVQAGGSLRLSCAASGRTASSYVMGWFRQAPGKEREFVAVINWNGDSTYYTDSVKGRFAISRDNAKNTVYLQMNSLKPEDTAVYYCAADTRREWYRDGYWGPPARYEYDYRGQGTQVTVSS
V domain 2: EVQLLESGGGSVQPGGSLRLSCAASGRPFSNYAMSWFRQAPGKEREFVSAISWSGGSTSYADSVKGRFTISRDNSKNTLYLQMNSLRAEDTAVYYCAAQFSGADFGFGRLGIRGYEYDYWGQGTQVTVSS
Consider B1, for which, in test [1], the “EC50 of THP-1 lysis, donor nr. 2” value was determined as 0.001 nM; the “EC50 of THP-1 target cell lysis by Vγ9Vδ2 T cells, 24 h” value lay within 0.001 to 0.003 nM; the “EC50 of THP-1 target cell lysis in THP-1/pDC/Vγ9Vδ2 T cell co-culture” value was around 1 pM; the “EC50 of pDC lysis relative to THP-1 cell lysis” value is around 10 fold. In test [1], the “EC50 of pDC lysis, donor nr. 2” value was 11 pM.

B2: anti-CD123 VHH 1D2 (VHH)
VHH: EVQLVESGGGLVQAGGSLRLSCAASGRTASSYVMGWFRQAPGKEREFVAVINWNGDSTYYTDSVKGRFAISRDNAKNTVYLQMNSLKPEDTAVYYCAADTRREWYRDGYWGPPARYEYDYRGQGTQVTVSS
notes: also called 1D2 VHH; lead anti-CD123 antibody
Regarding B2, the binding result in test [2] and in test [3] was “binds” in each case.

B3: humanized 1D2-5C8var1 variant with 1D2 var2 (SEQ ID NO:26) (bispecific antibody)
chain: EVQLVESGGGLVQPGGSLRLSCAASGRTASSYVMGWVRQAPGKEREWVSVINWNGDSTYYADSVKGRFTISRDNSKNTLYLQMNSLRAEDTAVYYCAADTRREWYRDGYWGPPARYEYDYRGQGTLVTVSSGGGGSEVQLLESGGGSVQPGGSLRLSCAASGRPFSNYAMSWFRQAPGKEREFVSAISWSGGSTSYADSVKGRFTISRDNSKNTLYLQMNSLRAEDTAVYYCAAQFSGADYGFGRLGIRGYEYDYWGQGTQVTVSSAAAEPEA
notes: See note of m19
Consider B3, for which, in test [4], the dissociation constant Kd stood at 24.5 nM.

B4: humanized 1D2-5C8var1 variant with 1D2 var4 (SEQ ID NO:28) (bispecific antibody)
chain: EVQLVESGGGVVQPGGSLRLSCAASGRTASSYVMSWFRQAPGKEREWVAVINWNGDSTYYADSVKGRFTISRDNSKNTLYLQMNSLRAEDTAVYYCAADTRREWYRDGYWGPPARYEYDYRGQGTTVTVSSGGGGSEVQLLESGGGSVQPGGSLRLSCAASGRPFSNYAMSWFRQAPGKEREFVSAISWSGGSTSYADSVKGRFTISRDNSKNTLYLQMNSLRAEDTAVYYCAAQFSGADYGFGRLGIRGYEYDYWGQGTQVTVSSAAAEPEA
notes: See note of m19
As to B4, the equilibrium dissociation constant (Kd) in test [5] came out at 20 nM.

B5: humanized 1D2-5C8var1 variant with 1D2 var6 (SEQ ID NO:30) (bispecific antibody)
chain: EVQLVESGGGLVQPGGSLRLSCAASGRTASSYVMGWVRQAPGKGLEWVSVINWNGDSTYYADSVKGRFTISRDNSKNTLYLQMNSLRAEDTAVYYCAADTRREWYRDGYWGPPARYEYDYRGQGTLVTVSSGGGGSEVQLLESGGGSVQPGGSLRLSCAASGRPFSNYAMSWFRQAPGKEREFVSAISWSGGSTSYADSVKGRFTISRDNSKNTLYLQMNSLRAEDTAVYYCAAQFSGADYGFGRLGIRGYEYDYWGQGTQVTVSSAAAEPEA
notes: See note of m19
Turning to B5, in test [4], the Kd is 29.1 nM.

B6: humanized 1D2-5C8var1 variant with 1D2 var8 (SEQ ID NO:32) (bispecific antibody)
chain: EVQLVESGGGLVQPGGSLRLSCAASGRTASSYVMSWFRQAPGKGLEWVAVINWNGDSTYYADSVKGRFTISRDNSKNTVYLQMNSLRAEDTAVYYCAADTRREWYRDGYWGPPARYEYDYRGQGTLVTVSSGGGGSEVQLLESGGGSVQPGGSLRLSCAASGRPFSNYAMSWFRQAPGKEREFVSAISWSGGSTSYADSVKGRFTISRDNSKNTLYLQMNSLRAEDTAVYYCAAQFSGADYGFGRLGIRGYEYDYWGQGTQVTVSSAAAEPEA
notes: See note of m19
On to B6, for which the Kd in test [4] came to 44.1 nM.

B7: humanized 1D2-5C8var1 variant with 1D2 var10 (SEQ ID NO:34) (bispecific antibody)
chain: EVQLVESGGGLVQPGGSLRLSCAASGRTASSYVMGWFRQAPGKEREFVSVINWNGDSTYYADSVKGRFTISRDNSKNTLYLQMNSLRAEDTAVYYCAADTRREWYRDGFWGPPARYEYDYRGQGTQVTVSSGGGGSEVQLLESGGGSVQPGGSLRLSCAASGRPFSNYAMSWFRQAPGKEREFVSAISWSGGSTSYADSVKGRFTISRDNSKNTLYLQMNSLRAEDTAVYYCAAQFSGADYGFGRLGIRGYEYDYWGQGTQVTVSSAAAEPEA
notes: See note of m19
As for B7, the Kd in test [5] worked out at 10.4 nM.

B8: 1A3-5C8var1 bispecific VHH (bispecific antibody)
chain: EVQLVESGGGLVQAGGSLRLSCAASGRAINTYAMAWFRQAPGKERDFVATISYSGGTTDYAGSVKGRFTISRDNAENTVYLQMNSLKPEDTAVYYCAARDRYNPLARNYNYWGQGTQVTVSSGGGGSEVQLLESGGGSVQPGGSLRLSCAASGRPFSNYAMSWFRQAPGKEREFVSAISWSGGSTSYADSVKGRFTISRDNSKNTLYLQMNSLRAEDTAVYYCAAQFSGADYGFGRLGIRGYEYDYWGQGTQVTVSSAAAEPEA
notes: Same format as 1D2-5C8var1
For the molecule B8, the “EC50 of THP-1 target cell lysis by Vγ9Vδ2 T cells” value in test [1] is around 0.05 nM. For the same molecule, the binding result is “no binding (tested: 50 nM (single concentration))” in the test with BSA and “no binding (tested: 100 nM (single concentration))” in test [6].

B9: anti-CD123 VHH 1A3 (VHH)
VHH: EVQLVESGGGLVQAGGSLRLSCAASGRAINTYAMAWFRQAPGKERDFVATISYSGGTTDYAGSVKGRFTISRDNAENTVYLQMNSLKPEDTAVYYCAARDRYNPLARNYNYWGQGTQVTVSS
For B9, the binding result in test [2] and in test [3] was “binds” throughout.
